What was measured:
[1] = molecular target: GST-tagged 16 kDa domain of protein 4.1R (human); test: SPR
[2] = molecular target: T1, GST-tagged α4 repeat region of α-spectrin (human, UniProt P02549 370-475); test: SPR
T1 sequence (looked up): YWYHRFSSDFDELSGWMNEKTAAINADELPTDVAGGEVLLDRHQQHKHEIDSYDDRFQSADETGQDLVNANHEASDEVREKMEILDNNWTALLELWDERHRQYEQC

GST-tagged 16 kDa domain of protein 4.1R (human), sequence (P11171 whole entry, the tested form may be a part): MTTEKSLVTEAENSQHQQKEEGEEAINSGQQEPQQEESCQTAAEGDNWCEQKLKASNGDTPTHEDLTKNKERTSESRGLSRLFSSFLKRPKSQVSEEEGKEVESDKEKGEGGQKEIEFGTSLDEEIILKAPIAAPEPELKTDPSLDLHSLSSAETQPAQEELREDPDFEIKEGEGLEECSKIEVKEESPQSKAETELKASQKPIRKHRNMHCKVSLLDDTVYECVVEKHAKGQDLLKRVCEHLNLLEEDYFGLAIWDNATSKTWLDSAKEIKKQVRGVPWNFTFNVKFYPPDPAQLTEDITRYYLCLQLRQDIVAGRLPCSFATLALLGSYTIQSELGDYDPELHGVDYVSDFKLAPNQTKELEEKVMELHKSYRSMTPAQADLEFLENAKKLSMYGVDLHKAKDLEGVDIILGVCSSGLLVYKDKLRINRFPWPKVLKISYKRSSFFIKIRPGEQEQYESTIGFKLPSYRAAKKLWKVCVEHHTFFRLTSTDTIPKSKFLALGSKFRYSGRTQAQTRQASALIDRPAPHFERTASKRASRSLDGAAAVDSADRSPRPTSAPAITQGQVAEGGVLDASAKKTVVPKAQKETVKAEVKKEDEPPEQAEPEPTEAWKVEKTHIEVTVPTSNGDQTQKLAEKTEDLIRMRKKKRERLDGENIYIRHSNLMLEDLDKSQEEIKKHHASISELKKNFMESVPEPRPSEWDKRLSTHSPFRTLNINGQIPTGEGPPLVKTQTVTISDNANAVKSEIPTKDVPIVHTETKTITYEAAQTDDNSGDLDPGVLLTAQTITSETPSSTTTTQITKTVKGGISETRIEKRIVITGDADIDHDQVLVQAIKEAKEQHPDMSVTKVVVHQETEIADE

B1: SBP1-C (analyte of the surface plasmon resonance) (domain or fragment)
chain: GKRKGYYLAKKQKKEQMLEQNPEQNPEQNPEQNAQQNAQQNAQQNAQQNSQQNTQQNTQQNTQQKTQQNPQQNAQKTHNNNPQPNPQQKQLLEKPKDKLL
B1 showed a Ka [1] of 1.73e+07 M⁻¹, a Kd [1] of 58.5 nM and a koff [1] of 0.000459 s⁻¹. It also gave a Ka [2] of 5.7e+07 ± 1.28 M⁻¹, a Kd [2] of 20.4 nM and a koff [2] of 0.00031 ± 0.42 s⁻¹.

From PMC4638388 (Biochimica et biophysica acta, 2015)
